Laboratory results: PMC10681739, “High-throughput data and modeling reveal insights into the mechanisms of cooperative DNA-binding by transcription factor proteins”

T1: ETS1 x2 (Homo sapiens, UniProt P14921)
T1 sequence: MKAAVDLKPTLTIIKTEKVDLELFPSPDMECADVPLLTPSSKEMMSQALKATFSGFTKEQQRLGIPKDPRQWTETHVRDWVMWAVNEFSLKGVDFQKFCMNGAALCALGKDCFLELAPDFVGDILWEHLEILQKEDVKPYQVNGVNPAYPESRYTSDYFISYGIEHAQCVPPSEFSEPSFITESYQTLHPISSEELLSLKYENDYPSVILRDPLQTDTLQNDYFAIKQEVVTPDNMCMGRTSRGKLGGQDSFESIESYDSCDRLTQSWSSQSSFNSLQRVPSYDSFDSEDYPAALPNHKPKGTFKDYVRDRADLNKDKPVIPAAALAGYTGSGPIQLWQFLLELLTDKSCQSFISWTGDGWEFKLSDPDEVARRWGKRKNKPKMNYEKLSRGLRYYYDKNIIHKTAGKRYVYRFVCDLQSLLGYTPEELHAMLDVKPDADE


Molecular target: T1, ETS1 x2
Test: gcPBM; 10 nM ETS1
Conditions: tags: N-terminal GST (pDEST15), kept (PMC6008103); chain copies: 2; label: surface-attached array probe

Binder | binding signal
Table S4 A row 2376 (dsDNA) DNA 1: CCCAGAGCCAATTTTCCACTTCCGCTTCCGGCGCTG DNA 2: CAGCGCCGGAAGCGGAAGTGGAAAATTGGCTCTGGG | 15700 PBM fluorescence, median of replicate spots
Table S4 A row 57 (dsDNA) DNA 1: ACTGGAGAACAGGAAATAGCAGGAAACGTCACCTAC DNA 2: GTAGGTGACGTTTCCTGCTATTTCCTGTTCTCCAGT | 13600 PBM fluorescence, median of replicate spots
Table S4 A row 557 (dsDNA) DNA 1: TTGACATCCTGCTCTCCTGTGACTTTGCTTCCTGTT DNA 2: AACAGGAAGCAAAGTCACAGGAGAGCAGGATGTCAA | 20500 PBM fluorescence, median of replicate spots
Table S4 A row 2364 (dsDNA) DNA 1: GTGGGGCTTCCTGCCGCAGAGCCGCCTTCCGCCCTC DNA 2: GAGGGCGGAAGGCGGCTCTGCGGCAGGAAGCCCCAC | 17300 PBM fluorescence, median of replicate spots
Table S4 A row 822 (dsDNA) DNA 1: AGCAGCTCAACAGGAAATACATCCTTTTCTGGTTGA DNA 2: TCAACCAGAAAAGGATGTATTTCCTGTTGAGCTGCT | 11900 PBM fluorescence, median of replicate spots
Table S4 A row 842 (dsDNA) DNA 1: GGGTGGCCCAGGCTTCCGCTTCCTGCCCACATACCC DNA 2: GGGTATGTGGGCAGGAAGCGGAAGCCTGGGCCACCC | 10900 PBM fluorescence, median of replicate spots
Table S4 A row 2246 (dsDNA) DNA 1: AAAGCACGACCTTCCGGGACCGGAAGTGCCGGTCGA DNA 2: TCGACCGGCACTTCCGGTCCCGGAAGGTCGTGCTTT | 28900 PBM fluorescence, median of replicate spots
Table S4 A row 1450 (dsDNA) DNA 1: CTCCCACTTCCTTCCTGTGCGGGGAAGAAAACTGCC DNA 2: GGCAGTTTTCTTCCCCGCACAGGAAGGAAGTGGGAG | 25000 PBM fluorescence, median of replicate spots
Table S4 A row 809 (dsDNA) DNA 1: GCTTGGGTGTTTCCTGTGCTGCTTCCTCTCCAACCT DNA 2: AGGTTGGAGAGGAAGCAGCACAGGAAACACCCAAGC | 23300 PBM fluorescence, median of replicate spots
Table S4 A row 2457 (dsDNA) DNA 1: TGCAGCTAACTACTTCCGCTTCCGCTTGCGTCCCCT DNA 2: AGGGGACGCAAGCGGAAGCGGAAGTAGTTAGCTGCA | 24300 PBM fluorescence, median of replicate spots
Table S4 A row 1898 (dsDNA) DNA 1: CCACCGGAAGACCTCAGTCATGTGGGTTTTCCGGTT DNA 2: AACCGGAAAACCCACATGACTGAGGTCTTCCGGTGG | 7470 PBM fluorescence, median of replicate spots
Table S4 A row 1203 (dsDNA) DNA 1: GGAGCGGAAGCCCTTTACACTACGGTGTTTCCGGCT DNA 2: AGCCGGAAACACCGTAGTGTAAAGGGCTTCCGCTCC | 5440 PBM fluorescence, median of replicate spots
Table S4 A row 189 (dsDNA) DNA 1: CACTTTCTGAAGAGGAAACAGGAAGTGTGTTTCATA DNA 2: TATGAAACACACTTCCTGTTTCCTCTTCAGAAAGTG | 8380 PBM fluorescence, median of replicate spots
Table S4 A row 1913 (dsDNA) DNA 1: AAATAACAGAAAGGAAATACATCCTGCCAGTTAACA DNA 2: TGTTAACTGGCAGGATGTATTTCCTTTCTGTTATTT | 8690 PBM fluorescence, median of replicate spots
Table S4 A row 2310 (dsDNA) DNA 1: CATACGGCGCCACCGGAAGTTCCGGCAAGTGGGCCC DNA 2: GGGCCCACTTGCCGGAACTTCCGGTGGCGCCGTATG | 18500 PBM fluorescence, median of replicate spots
Table S4 A row 314 (dsDNA) DNA 1: TTGGGAGGCACAGGAAGACCGGATGTGGTTTAAGAA DNA 2: TTCTTAAACCACATCCGGTCTTCCTGTGCCTCCCAA | 12700 PBM fluorescence, median of replicate spots

Binder | binding signal
Table S4 A row 323 (dsDNA) DNA 1: TCCATGACCCCATTTCCGCTTCCTACAGGTGAGTGT DNA 2: ACACTCACCTGTAGGAAGCGGAAATGGGGTCATGGA | 21500 PBM fluorescence, median of replicate spots
Table S4 A row 2352 (dsDNA) DNA 1: CGCCGCTGACACCGGAACCGGAAACTTCATCAGGAG DNA 2: CTCCTGATGAAGTTTCCGGTTCCGGTGTCAGCGGCG | 6600 PBM fluorescence, median of replicate spots
Table S4 A row 1689 (dsDNA) DNA 1: TGCCCGGATGTTGAGGTCTGGTTGGCATTTCCTGTG DNA 2: CACAGGAAATGCCAACCAGACCTCAACATCCGGGCA | 9040 PBM fluorescence, median of replicate spots
Table S4 A row 916 (dsDNA) DNA 1: ACTGCAGATCCCCTTCCTGTTTCCTTTGCTCTCCTG DNA 2: CAGGAGAGCAAAGGAAACAGGAAGGGGATCTGCAGT | 6260 PBM fluorescence, median of replicate spots
Table S4 A row 1991 (dsDNA) DNA 1: GCGCGCACCCTCCTTCCGGCATCCGTAGAACCCCCG DNA 2: CGGGGGTTCTACGGATGCCGGAAGGAGGGTGCGCGC | 15100 PBM fluorescence, median of replicate spots
Table S4 A row 954 (dsDNA) DNA 1: GGTATACAGGAAACCCAGAGAGACAGGAAATGTCTC DNA 2: GAGACATTTCCTGTCTCTCTGGGTTTCCTGTATACC | 5630 PBM fluorescence, median of replicate spots
Table S4 A row 1887 (dsDNA) DNA 1: CACTCAGGAAGTAGGTCAGGAGGAGATATCCTGTGT DNA 2: ACACAGGATATCTCCTCCTGACCTACTTCCTGAGTG | 6420 PBM fluorescence, median of replicate spots
Table S4 A row 255 (dsDNA) DNA 1: CTGGAGGCAGGCTTCCTGTGCTTCCTGTAGGTGACA DNA 2: TGTCACCTACAGGAAGCACAGGAAGCCTGCCTCCAG | 9790 PBM fluorescence, median of replicate spots
Table S4 A row 1340 (dsDNA) DNA 1: TTGAGGCCCAGACCGGAACTTCCTTTCGGCCTCAGT DNA 2: ACTGAGGCCGAAAGGAAGTTCCGGTCTGGGCCTCAA | 5800 PBM fluorescence, median of replicate spots
Table S4 A row 2250 (dsDNA) DNA 1: CTGACAGACCCGGAAATAAGAGGAAACCACACACTT DNA 2: AAGTGTGTGGTTTCCTCTTATTTCCGGGTCTGTCAG | 8250 PBM fluorescence, median of replicate spots
Table S4 A row 763 (dsDNA) DNA 1: GGGCAACTTCCGCGACCTCTACCACATCCTTGAGAA DNA 2: TTCTCAAGGATGTGGTAGAGGTCGCGGAAGTTGCCC | 19000 PBM fluorescence, median of replicate spots
Table S4 A row 2476 (dsDNA) DNA 1: TGTGCCGTAGCATTTCCGGCGGAAGTTGCTGGGCGC DNA 2: GCGCCCAGCAACTTCCGCCGGAAATGCTACGGCACA | 26900 PBM fluorescence, median of replicate spots
Table S4 A row 215 (dsDNA) DNA 1: GGGCCCCAGCTTCCTCTCTGCCTTCCGCCGCCCGCT DNA 2: AGCGGGCGGCGGAAGGCAGAGAGGAAGCTGGGGCCC | 6960 PBM fluorescence, median of replicate spots
Table S4 A row 634 (dsDNA) DNA 1: AGACAGACACTGCTTCCTGCTTCCTAATGGCCGATC DNA 2: GATCGGCCATTAGGAAGCAGGAAGCAGTGTCTGTCT | 10500 PBM fluorescence, median of replicate spots
Table S4 A row 1964 (dsDNA) DNA 1: CCACGGTGGTGACTTCCTTTTCCGCTCCCCTACACA DNA 2: TGTGTAGGGGAGCGGAAAAGGAAGTCACCACCGTGG | 7690 PBM fluorescence, median of replicate spots
Table S4 A row 2128 (dsDNA) DNA 1: CCGGCCCGCAGCCGGAACCGGAAATGCCCTTAGGGA DNA 2: TCCCTAAGGGCATTTCCGGTTCCGGCTGCGGGCCGG | 17000 PBM fluorescence, median of replicate spots
